B1: Hammerhead Ribozyme (parent)
chain: ACCGGAUGUGCUUUCCGGUCUGAUGAGUCCGUGAGGACGAAACAG

Variants of: B1
Experiment: self-cleavage, relative activity (ratio to wild type); higher = more cleavage; co-transcriptional

Row | Variant | self-cleavage
1 | G35U A40C | 0.374
2 | G35U A40G | 0.342
3 | G35U A40U | 0.366
4 | G35U A41C | 0.305
5 | G35U A41G | 0.33
6 | G35U A41U | 0.311
7 | G35U A42C | 0.384
8 | G35U A42G | 0.253
9 | G35U A42U | 0.344
10 | G35U A44C | 0.384
11 | G35U A44G | 0.943
12 | G35U A44U | 0.338
13 | G35U C38A | 0.404
14 | G35U C38G | 0.374
15 | G35U C38U | 0.775
16 | G35U C43A | 0.378
17 | G35U C43G | 0.34
18 | G35U C43U | 0.43
19 | G35U G36A | 0.525
20 | G35U G36C | 0.476
21 | G35U G36U | 0.463

Row | Variant | self-cleavage
22 | G35U G39A | 0.331
23 | G35U G39C | 0.344
24 | G35U G39U | 0.42
25 | G35U G45A | 0.473
26 | G35U G45C | 0.466
27 | G35U G45U | 0.421
28 | G36A | 0.733
29 | G36A A37C | 0.414
30 | G36A A37G | 0.556
31 | G36A A37U | 0.533
32 | G36A A40C | 0.319
33 | G36A A40G | 0.289
34 | G36A A40U | 0.384
35 | G36A A41C | 0.382
36 | G36A A41G | 0.344
37 | G36A A41U | 0.279
38 | G36A A42C | 0.287
39 | G36A A42G | 0.25
40 | G36A A42U | 0.333
41 | G36A A44C | 0.31
42 | G36A A44G | 0.75

Row | Variant | self-cleavage
43 | G36A A44U | 0.332
44 | G36A C38A | 0.345
45 | G36A C38G | 0.342
46 | G36A C38U | 0.531
47 | G36A C43A | 0.383
48 | G36A C43G | 0.274
49 | G36A C43U | 0.378
50 | G36A G39A | 0.337
51 | G36A G39C | 0.306
52 | G36A G39U | 0.322
53 | G36A G45A | 0.444
54 | G36A G45C | 0.422
55 | G36A G45U | 0.452
56 | G36C | 0.52
57 | G36C A37C | 0.296
58 | G36C A37G | 0.748
59 | G36C A37U | 0.29
60 | G36C A40C | 0.4
61 | G36C A40G | 0.368
62 | G36C A40U | 0.346
63 | G36C A41C | 0.364

Row | Variant | self-cleavage
64 | G36C A41G | 0.449
65 | G36C A41U | 0.294
66 | G36C A42C | 0.321
67 | G36C A42G | 0.272
68 | G36C A42U | 0.286
69 | G36C A44C | 0.383
70 | G36C A44G | 0.588
71 | G36C A44U | 0.296
72 | G36C C38A | 0.403
73 | G36C C38G | 0.369
74 | G36C C38U | 0.335
75 | G36C C43A | 0.35
76 | G36C C43G | 0.286
77 | G36C C43U | 0.308
78 | G36C G39A | 0.29
79 | G36C G39C | 0.335
80 | G36C G39U | 0.325
81 | G36C G45A | 0.374
82 | G36C G45C | 0.393
83 | G36C G45U | 0.367
84 | G36U | 0.625

— the RNAGym collection of RNA variant scans (doi:10.7554/elife.80360)
